Where a chain is given by its changes, count along the chain named.
B1: CYP27C1 WT (ADS2782/ADS2783) (dsDNA)
DNA 1: CTAGAACATGTTAATGTAAACAAGGAAGCCTG
DNA 2: CTAGCAGGCTTCCTTGTTTACATTAACATGTT
B2: CYP27C1mut2 (ADS3739/ADS3740) (dsDNA)
DNA 1: B1 DNA 1 with A23G, G24A
DNA 2: B1 DNA 2 with C13T, T14C
B3: CYP27C1mut1 (ADS3737/ADS3738) (dsDNA)
DNA 1: B1 DNA 1 with A14G, T15G
DNA 2: B1 DNA 2 with A22C, T23C

Key:
[1] = target: T1, FOXO3(130-271) (UniProt O43524 130-271); test: EMSA; competition; labelled WT probe; unlabelled WT competitor 25-200x; EMSA: 75 mM KCl, room temperature 30 min, 5% PAGE in 0.25x TBE at 4 C; pull-down conditions not in material; details: protein: recombinant; tags: 6xHis; label: radioactive label (probe); 5' overhang 4 nt at both ends
[2] = target: T2, FOXK2(228-382) (UniProt Q01167 228-382); test: as above; details: protein: recombinant; tags: 6xHis; label: radioactive label (probe); 5' overhang 4 nt at both ends
[3] = target: T1, FOXO3(130-271); test: competition; unlabelled competitor 25-200x; competes equally to WT; EMSA: 75 mM KCl, room temperature 30 min, 5% PAGE in 0.25x TBE at 4 C; pull-down conditions not in material; details: protein: recombinant; tags: 6xHis; 5' overhang 4 nt at both ends
[4] = target: T2, FOXK2(228-382); test: as above; details: protein: recombinant; tags: 6xHis; 5' overhang 4 nt at both ends

T1 sequence (O43524 130-271): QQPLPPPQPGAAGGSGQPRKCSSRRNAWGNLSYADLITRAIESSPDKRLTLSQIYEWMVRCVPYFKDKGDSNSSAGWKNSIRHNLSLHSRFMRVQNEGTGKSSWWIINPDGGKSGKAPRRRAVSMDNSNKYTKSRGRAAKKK
T2 sequence (Q01167 228-382): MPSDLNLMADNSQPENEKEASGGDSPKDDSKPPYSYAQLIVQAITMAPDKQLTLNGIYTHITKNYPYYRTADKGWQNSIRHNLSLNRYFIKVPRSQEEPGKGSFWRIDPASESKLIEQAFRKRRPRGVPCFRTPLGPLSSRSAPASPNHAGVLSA

| Binder | binding result [1] | binding result [2] | binding result [3] | binding result [4] |
| --- | --- | --- | --- | --- |
| B1 | binds | binds |  |  |
| B2 |  |  | binds | binds |
| B3 |  |  | binds |  |

Reference: article PMC4770209, “Genome-wide binding studies reveal DNA binding specificity mechanisms and functional interplay amongst Forkhead transcription factors”
